Literature values, collected in patent US20180140739A1, “HAEMOSTATIC DEVICE” (HAEMOSTATIX LIMITED, priority 2015, published 2018).

Target: T1, fibrinogen hole 'a' and hole 'b' (Homo sapiens, UniProt P02675+P02679)
T1 sequence (P02679 27-433 limits assumed): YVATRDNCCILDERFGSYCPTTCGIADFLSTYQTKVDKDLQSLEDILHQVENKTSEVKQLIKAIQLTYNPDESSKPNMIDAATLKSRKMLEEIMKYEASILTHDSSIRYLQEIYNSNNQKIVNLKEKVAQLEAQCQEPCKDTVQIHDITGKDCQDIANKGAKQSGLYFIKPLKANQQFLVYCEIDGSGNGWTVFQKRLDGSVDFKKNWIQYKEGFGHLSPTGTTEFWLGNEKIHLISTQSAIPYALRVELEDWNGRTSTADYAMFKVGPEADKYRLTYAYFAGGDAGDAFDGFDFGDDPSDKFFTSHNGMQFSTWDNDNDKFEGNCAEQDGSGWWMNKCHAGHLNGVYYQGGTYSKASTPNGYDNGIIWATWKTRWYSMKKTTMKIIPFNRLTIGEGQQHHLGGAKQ
T1 sequence (P02675 31-491): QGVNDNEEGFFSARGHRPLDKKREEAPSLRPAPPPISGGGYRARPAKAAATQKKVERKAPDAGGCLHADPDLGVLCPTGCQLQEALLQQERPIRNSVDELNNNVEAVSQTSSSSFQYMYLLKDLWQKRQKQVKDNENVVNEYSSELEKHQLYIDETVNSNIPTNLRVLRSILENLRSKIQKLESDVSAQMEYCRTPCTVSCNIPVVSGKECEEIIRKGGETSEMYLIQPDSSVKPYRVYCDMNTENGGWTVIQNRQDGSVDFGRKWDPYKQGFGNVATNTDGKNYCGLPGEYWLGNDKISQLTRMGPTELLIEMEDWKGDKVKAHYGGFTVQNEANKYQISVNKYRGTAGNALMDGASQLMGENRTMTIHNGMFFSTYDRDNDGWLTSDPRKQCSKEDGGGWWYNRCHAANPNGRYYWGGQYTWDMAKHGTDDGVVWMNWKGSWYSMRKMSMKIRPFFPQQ
T1 sequence (P02671 20-629 partner limits assumed): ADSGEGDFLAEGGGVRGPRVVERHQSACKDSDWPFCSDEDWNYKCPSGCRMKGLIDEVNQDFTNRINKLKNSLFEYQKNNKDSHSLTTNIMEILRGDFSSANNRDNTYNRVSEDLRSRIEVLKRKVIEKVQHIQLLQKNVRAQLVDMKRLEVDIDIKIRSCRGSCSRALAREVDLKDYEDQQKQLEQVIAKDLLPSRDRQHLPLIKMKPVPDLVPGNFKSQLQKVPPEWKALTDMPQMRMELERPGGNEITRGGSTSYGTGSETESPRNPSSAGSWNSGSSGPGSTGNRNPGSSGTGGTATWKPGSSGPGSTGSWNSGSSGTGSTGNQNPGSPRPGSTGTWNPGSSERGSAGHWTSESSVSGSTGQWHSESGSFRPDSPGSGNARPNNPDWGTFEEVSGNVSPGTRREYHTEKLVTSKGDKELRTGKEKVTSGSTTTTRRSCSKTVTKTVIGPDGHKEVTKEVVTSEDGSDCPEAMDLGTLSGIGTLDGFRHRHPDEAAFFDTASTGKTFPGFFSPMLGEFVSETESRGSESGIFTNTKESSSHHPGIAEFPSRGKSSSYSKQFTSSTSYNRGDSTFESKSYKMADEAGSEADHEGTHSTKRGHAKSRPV
Settings: cited from earlier work

Substance: GFIRPY
- binding preference for hole 'a' / hole 'b' of fibrinogen: binds strongly and preferentially to the ‘b’ hole of fibrinogen

Substance: GPRP
- binding preference for hole 'a' / hole 'b' of fibrinogen: binds strongly and preferentially to the ‘a’ hole of fibrinogen

Substance: GPRPFPA (listed as Homo sapiens)
- binding preference for hole 'a' / hole 'b' of fibrinogen: binds with high preference for hole ‘a’ in fibrinogen
